The record followed here is publication PMC3253889 (Proteomics, 2011).

Experiment [1] has as its target T1, human lymphotoxin alpha homo-trimer (LT-α3) (human, UniProt P01374). As to the kind of experiment: SPR. Background: Surface plasmon resonance follows binding to a sensor surface in real time, without labels.
The target in experiment [2] is T1, human lymphotoxin alpha homo-trimer …. As to the kind of experiment: ELISA. Background: In an ELISA, binding on a coated surface is turned into a signal by an enzyme label.
Another experiment concerns the target human LT-α3-biotin (human, UniProt P01374, biotin). The experiment is described as follows: ELISA.

T1 sequence (P01374 35-205): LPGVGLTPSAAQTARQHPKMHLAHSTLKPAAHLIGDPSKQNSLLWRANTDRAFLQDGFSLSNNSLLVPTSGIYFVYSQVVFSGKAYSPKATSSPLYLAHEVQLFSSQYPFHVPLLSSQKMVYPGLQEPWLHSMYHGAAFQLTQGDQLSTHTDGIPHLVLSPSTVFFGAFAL
Sequence of human LT-α3-biotin (P01374 35-205): as above

B1: LT-3F12 anti-LT-α monoclonal antibody purified from mouse ascites (antibody, V domains shown)
VH: QGQLQQSGAELMKPGASVKISCKATGYTFSSYWIEWVKQRPGHGLEWIGEISPGSGSTNYNEEFKGKATFTADKSSNTAYIQLSSLTSEDSAVYYCADGYHGYWGQGTTLTVSS
VL: DIVMSQSPSSLAVSVGEKVTMSCKSSQSLLYSTNQKNFLAWYQQKPGQSPKLLIYWASTRDSGVPDRFTGSGSGTDFTLTISSVKAEDLAVYYCQQYYSYPRTFGGGTKLEIK
As for B1, binding in experiment [1] was characterised by a dissociation constant (Kd) of 0.3 nM. Besides, the EC50 (usually the concentration giving half of the maximal effect) in experiment [2] was 0.018 nM. The IC50 (as a rule, the point on the concentration scale where inhibition reaches its midpoint) in the experiment with human LT-α3-biotin turned out to be 47 nM.

B2: LT-3F12 rescued recombinant chimeric antibody (antibody, V domains shown)
VH: QGQLQQSGAELMKPGASVKISCKATGYTFSSYWIEWVKQRPGHGLEWIGEISPGSGSTNYNEEFKGKATFTADKSSNTAYIQLSSLTSEDSAVYYCADGYHGYWGQGTTLTVSS
VL: DIVMSQSPSSLAVSVGEKVTMSCKSSQSLLYSTNQKNFLAWYQQKPGQSPKLLIYWASTRDSGVPDRFTGSGSGTDFTLTISSVKAEDLAVYYCQQYYSYPRTFGGGTKLEIK
In the case of B2, binding in experiment [1] was put at a Kd of 0.3 nM. Also, a half-maximal effect in experiment [2] (EC50) was put at 0.037 nM.
